According to patent publication US20180148492A1 (CHILDREN S HOSPITAL MEDICAL CENTER, published 2018):

T1: integrin α4 overexpressed in HEK 293T cells (UniProt P13612 34-1032, limits assumed)
T1 construct: Tested in cell lysates; also called α4 integrin; pITGA4
T1 sequence (looked up): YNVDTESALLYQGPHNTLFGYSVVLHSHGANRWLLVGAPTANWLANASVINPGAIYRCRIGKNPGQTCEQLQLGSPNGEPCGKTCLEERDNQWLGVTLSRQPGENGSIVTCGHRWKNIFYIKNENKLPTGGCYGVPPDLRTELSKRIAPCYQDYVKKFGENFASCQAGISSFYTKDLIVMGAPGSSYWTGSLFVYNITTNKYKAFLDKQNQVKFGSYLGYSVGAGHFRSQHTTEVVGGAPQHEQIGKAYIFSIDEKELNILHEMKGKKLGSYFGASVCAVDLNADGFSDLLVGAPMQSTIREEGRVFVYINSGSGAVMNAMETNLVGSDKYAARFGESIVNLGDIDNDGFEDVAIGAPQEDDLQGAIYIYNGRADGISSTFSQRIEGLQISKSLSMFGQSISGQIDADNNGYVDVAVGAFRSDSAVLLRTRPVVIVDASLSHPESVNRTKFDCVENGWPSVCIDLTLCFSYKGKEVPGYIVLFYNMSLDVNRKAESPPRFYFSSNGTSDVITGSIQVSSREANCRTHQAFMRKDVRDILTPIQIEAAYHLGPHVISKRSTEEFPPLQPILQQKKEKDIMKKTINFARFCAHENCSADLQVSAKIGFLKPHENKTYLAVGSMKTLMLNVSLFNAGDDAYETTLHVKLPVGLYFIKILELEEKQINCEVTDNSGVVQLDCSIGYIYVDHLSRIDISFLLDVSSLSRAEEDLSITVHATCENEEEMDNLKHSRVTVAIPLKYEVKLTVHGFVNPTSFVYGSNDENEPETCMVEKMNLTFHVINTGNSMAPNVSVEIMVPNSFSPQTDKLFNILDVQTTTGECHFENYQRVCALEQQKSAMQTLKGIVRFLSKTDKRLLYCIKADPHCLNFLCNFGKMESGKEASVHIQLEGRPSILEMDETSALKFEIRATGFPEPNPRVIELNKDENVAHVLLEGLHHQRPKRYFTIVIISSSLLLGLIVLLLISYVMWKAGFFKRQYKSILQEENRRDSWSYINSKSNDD


Tests used:
[1] = target: T1, integrin α4 overexpressed in HEK 293T …; assay: co-immunoprecipitation from HEK 293T cells overexpressing the proteins
Method: Cells (approximately 2×10⁶) were washed one time with PBS and incubated in IP buffer (50 mM Tris-HCl [pH 7.4], 150 mM NaCl, 2 mM EDTA, 1 mM dithiothreitol, 1% Nonidet P-40 [NP-40]; or 10 mM imidazole, 100 mM NaCl, 1 mM MgCl₂, 5 mM EDTA, 1% Triton X-100, pH 7.4) containing 1× cOmplete protease inhibitor cocktail (Roche) for 10 min on ice. Cells were scraped from the plate and rotated at 4° C. for 10 min. Lysates were cleared by centrifugation at 20,000×g at 4° C. for 10 min. An equal amount of protein was added to total 500 microliters of IP buffer plus protease inhibitors (Roche). Antibodies (2 micrograms α-HA (Covance), α-myc (Covance), α-p120 (BD Transduction Laboratories), α-ITGA4 (Cell Signaling Technology, Inc.), mouse IgG1 control (AbD Serotec), or normal rabbit IgG control (R & D Systems)) were added and rotated overnight at 4° C. Subsequently, 20 microliters of protein A/G agarose beads (Santa Cruz Biotechnology, Inc.) were added per sample. After 2 h of rotation (4° C.), beads were washed 5 times in IP buffer containing protease inhibitors. 2× Laemmli buffer was added to the immunoprecipitates or total cell lysates saved prior to IP (input).

[2] = target: the molecule itself; assay: cell-based or functional assay

Row | binding result [1] | Binder | phosphorylation of ERK upon calcium restoration [2] [fold]
1 | no binding | CDH1 (E-cadherin) overexpressed in HEK 293T cells (receptor, UniProt P12830 155-882, looked up, Tested in cell lysates; also called pCDH1) DWVIPPISCPENEKGPFPKNLVQIKSNKDKEGKVFYSITGQGADTPPVGVFIIERETGWLKVTEPLDRERIATYTLFSHAVSSNGNAVEDPMEILITVTDQNDNKPEFTQEVFKGSVMEGALPGTSVMEVTATDADDDVNTYNAAIAYTILSQDPELPDKNMFTINRNTGVISVVTTGLDRESFPTYTLVVQAADLQGEGLSTTATAVITVTDTNDNPPIFNPTTYKGQVPENEANVVITTLKVTDADAPNTPAWEAVYTILNDDGGQFVVTTNPVNNDGILKTAKGLDFEAKQQYILHVAVTNVVPFEVSLTTSTATVTVDVLDVNEAPIFVPPEKRVEVSEDFGVGQEITSYTAQEPDTFMEQKITYRIWRDTANWLEINPDTGAISTRAELDREDFEHVKNSTYTALIIATDNGSPVATGTGTLLLILSDVNDNAPIPEPRTIFFCERNPKPQVINIIDADLPPNTSPFTAELTHGASANWTIQYNDPTQESIILKPKMALEVGDYKINLKLMDNQNKDQVTTLEVSVCDCEGAAGVCRKAQPVEAGLQIPAILGILGGILALLILILLLLLFLRRRAVVKEPLLPPEDDTRDNVYYYDEEGGGEEDQDFDLSQLHRGLDARPEVTRNDVAPTLMSVPRYLPRPANPDEIGNFIDENLKAADTDPTAPPYDSLLVFDYEGSGSEAASLSSLNSSESDKDQDYDYLNEWGNRFKKLADMYGGGEDD | –
2 | – | human CDH26 (cadherin 26) expressed on transduced cells (receptor) DSVQQETDDLTKQTKEKIYQPLRRSKRRWVITTLELEEEDPGPFPKLIGELFNNMSYNMSLMYLISGPGVDEYPEIGLFSLEDHENGRIYVHRPVDREMTPSFTVYFDVVERSTGKIVDTSLIFNIRISDVNDHAPQFPEKEFNITVQENQSAGQPIFQMLAVDLDEENTPNSQVLYFLISQTPLLKESGFRVDRLSGEIRLSGCLDYETAPQFTLLIRARDCGEPSLSSTTTVHVDVQEGNNHRPAFTQENYKVQIPEGRASQGVLRLLVQDRDSPFTSAWRAKFNILHGNEEGHFDISTDPETNEGILNVIKPLDYETRPAQSLIIVVENEERLVFCERGKLQPPRKAAASATVSVQVTDANDPPAFHPQSFIVNKEEGARPGTLLGTFNAMDPDSQIRYELVHDPANWVSVDKNSGVVITVEPIDRESPHVNNSFYVIIIHAVDDGFPPQTATGTLMLFLSDINDNVPTLRPRSRYMEVCESAVHEPLHIEAEDPDLEPFSDPFTFELDNTWGNAEDTWKLGRNWGQSVELLTLRSLPRGNYLVPLFIGDKQGLSQKQTVHVRICPCASGLTCVELADAEVGLHVGALFPVCAAFVALAVALLFLLRCYFVLEPKRHGCSVSNDEGHQTLVMYNAESKGTSAQTWSDVEGQRPALLICTAAAGPTQGVKDLEEVPPSAASQSAQARCALGSWGYGKPFEPRSVKNIHSTPAYPDATMHRQLLAPVEGRMAETLNQKLHVANVLEDDPGYLPHVYSEEGECGGAPSLSSLASLEQELQPDLLDSLGSKATPFEEIYSESGVPS | 11.6
